# B1: porcine lipase: Commercial porcine pancreatic lipase, positive control of the lipase/esterase assays (protein, UniProt P00591 1-450, looked up)
# Pancreatic triacylglycerol …: SEVCFPRLGCFSDDAPWAGIVQRPLKILPWSPKDVDTRFLLYTNQNQNNYQELVADPSTITNSNFRMDRKTRFIIHGFIDKGEEDWLSNICKNLFKVESVNCICVDWKGGSRTGYTQASQNIRIVGAEVAYFVEVLKSSLGYSPSNVHVIGHSLGSHAAGEAGRRTNGTIERITGLDPAEPCFQGTPELVRLDPSDAKFVDVIHTDAAPIIPNLGFGMSQTVGHLDFFPNGGKQMPGCQKNILSQIVDIDGIWEGTRDFVACNHLRSYKYYADSILNPDGFAGFPCDSYNVFTANKCFPCPSEGCPQMGHYADRFPGKTNGVSQVFYLNTGDASNFARWRYKVSVTLSGKKVTGHILVSLFGNEGNSRQYEIYKGTLQPDNTHSDEFDSDVEVGDLQKVKFIWYNNNVINPTLPRVGASKITVERNDGKVYDFCSQETVREEVLLTLNPC
# Tests used:
# [1] = Rhodamine lipase assay with crude plant leaf extracts; format: biochemical; conditions: 0.025 ml droplets (crude leaf extract or 20 U porcine lipase); 30 C overnight
# Description: For transient expression assays of bovine PGE, the plant transformation and expression vectors constructed in Example 12 were moved into A. tumefaciens strain GV2260 by either electroporation or bacterial conjugation as described (Kapila et al., 1997). GV2260 carrying pIPG745 or pIPG746 was used for transient expression in tobacco, pepper, tomato, citrus, geranium, and rice plants as described (Kapila et al. 1997; Duan et al., 1999; Wroblewski et al. 2005). Cultures of Agrobacterium harboring the constructs of interest were grown in minimal medium in the presence of acetosyringone to induce the Agrobacterium vir genes. The optical density of the cultures was maintained at 0.008 for pepper and tomato and at 0.25 for citrus, geranium and rice. Strain GV2260 was flooded into healthy, young, fully expanded leaves of vigorous plants into the apoplastic space through open stomata by injection using a tuberculin syringe without a needle, flooding entire leaves. […]
# Two lipase/esterase activity assays were used. […] Lower intensity fluorescence was also observed from the empty vector controls. In order to quantify the difference, 0.2 ml of the rhodamine olive oil suspension was mixed with 0.1 ml of plant extract and allowed to incubate at 30 C for 24 hrs. Fluorescence was measured using a Tecan Spectraluor Plus spectrofluorimeter (excitation=360 nm; emission=535 nm).
# [2] = Phenol red lipase/esterase assay with crude plant leaf extracts; format: biochemical
# Description: In this Figure, the first tube on the left (labeled “Buffer”) contains phenol red buffer and Tween 20 (the dark red color appears dark in this black and white figure); the second tube to the right (“SL”) has 4 Units of Sigma porcine pancreatic lipase added (the bright yellow color appears light); the third tube to the right (labeled “731”) has a twenty microliter droplet of a crude tomato plant leaf extract from leaves inoculated 4 days earlier with GV2260 carrying “empty” (ie., no lipase gene) expression vector pIPG731 (the dark red color appears dark), and the fourth tube to the right (“768 WI”) has a twenty microliter droplet of crude tomato plant leaf extract from leaves inoculated four days earlier with GV2260 carrying cloned bovine pregastric esterase expressed in pIPG768 (the bright yellow color appears light). Tomato leaf tissue particles may be seen floating in the third and fourth tubes to the right. […] The photo was taken 16 hrs. after start of the assay.
# For transient expression assays of bovine PGE, the plant transformation and expression vectors constructed in Example 12 were moved into A. tumefaciens strain GV2260 by either electroporation or bacterial conjugation as described (Kapila et al., 1997). GV2260 carrying pIPG745 or pIPG746 was used for transient expression in tobacco, pepper, tomato, citrus, geranium, and rice plants as described (Kapila et al. 1997; Duan et al., 1999; Wroblewski et al. 2005). Cultures of Agrobacterium harboring the constructs of interest were grown in minimal medium in the presence of acetosyringone to induce the Agrobacterium vir genes. The optical density of the cultures was maintained at 0.008 for pepper and tomato and at 0.25 for citrus, geranium and rice. Strain GV2260 was flooded into healthy, young, fully expanded leaves of vigorous plants into the apoplastic space through open stomata by injection using a tuberculin syringe without a needle, flooding entire leaves. After 3-4 days, two grams of leaf tissue (fresh weight), was ground in liquid nitrogen to a fine powder, and 0.5 ml of ice cold phosphate buffered saline (PBS; 137 mM NaCl, 2.7 mM KCl, 10 mM potassium phosphate, pH 7.4) was added and mixed thoroughly at 4 C. The mixture was mixed on an orbital shaker at 4 C for 30 minutes, and plant debris was pelleted at 10,000×g for 15 minutes and discarded. The supernatants from these crude plant leaf extracts were directly used in lipase/esterase assays.
# The second activity assay was a phenol red lipase/esterase assay using tributyrin, olive oil or Tween 20 as substrates as described by Singh et al. (2006), except that liquid medium, rather than solidified agar medium, was used. Twenty microliter droplets of crude plant leaf extracts and the positive control were placed in the tributyrin/phenol red medium containing tributyrin, olive oil or Tween 20 and incubated at 30 C overnight. […] Transient expression of bovine PGE was confirmed in tobacco, pepper, tomato, citrus, geranium, and rice plants.
# For transient expression assays, the plant transformation and expression vectors constructed in Example 15 were moved into A. tumefaciens strain GV2260 by electroporation. GV2260 carrying pIPG823 was used for transient expression in tobacco and geranium plants exactly as described in Example 20. The supernatants from crude plant leaf extracts were directly used in phenol red lipase/esterase assays using tributyrin and olive oil as substrates exactly as described in Example 20.
molecule,measurement,setting,value
B1,Fluorescence on rhodamine olive oil agar plates,[1],Bright fluorescent spots
same,Phenol red indicator tube color (FIG. 2),"[2]; Tween 20 substrate, 16 hrs after start, tomato leaf extract or 4 Units lipase",bright yellow
same,Phenol red indicator color change,"[2]; substrates tributyrin and olive oil, extracts of tobacco and geranium leaves, nematode esterase construct",color change from red to bright yellow
same,Phenol red indicator color change,"[2]; substrates tributyrin, olive oil or Tween 20, twenty microliter droplets, 30 C overnight, bovine PGE constructs",color change from red to bright yellow
same,Substrates utilized in phenol red lipase/esterase assay,[2]; transiently plant-expressed enzyme or positive control,"utilized all three substrates: tributyrin, olive oil and Tween 20"
